pKd: −log10 of the molar value.
Target: H3_(1-15)K4me3 peptide with an added C-terminal Tyr (UniProt P68431)
Assay: ITC

pKd: 6.12
Substance: Recombinant JARID1A_(PHD3) protein used for calorimetry (domain or fragment)

Source: paper PMC2697266
